Patent US20240052042A1 (Novartis, published 2024)
Substitutions are numbered along the chain they refer to. Values belong to the binder of their own block, whether it stands above or below them.

Key:
[1] = biological target: T1, human Natriuretic Peptide Receptor 1 (hNPR1) (human, UniProt P16066 33-473, limits assumed); experiment: SET, FabCys
T1 construct: pannings used NPR1-hFc; also called NPR1-hFc
T1 sequence: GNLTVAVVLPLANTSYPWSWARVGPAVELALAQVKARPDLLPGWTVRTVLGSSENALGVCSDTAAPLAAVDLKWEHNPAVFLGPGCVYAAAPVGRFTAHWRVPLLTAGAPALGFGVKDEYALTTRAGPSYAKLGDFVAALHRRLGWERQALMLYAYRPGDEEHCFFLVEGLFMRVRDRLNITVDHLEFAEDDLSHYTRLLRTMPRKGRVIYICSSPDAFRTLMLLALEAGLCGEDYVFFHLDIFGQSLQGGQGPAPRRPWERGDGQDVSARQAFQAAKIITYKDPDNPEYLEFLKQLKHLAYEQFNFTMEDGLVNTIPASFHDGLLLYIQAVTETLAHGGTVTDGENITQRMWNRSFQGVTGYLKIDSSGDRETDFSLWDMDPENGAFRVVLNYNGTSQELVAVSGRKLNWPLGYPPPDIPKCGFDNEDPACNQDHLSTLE

hNPR1-ANP complex [2] = biological target: T2, hNPR1-ANP complex (human, UniProt P01160 124-151, limits assumed); experiment: SET, FabCys
T2 construct: hNPR1 antigen in the presence of ANP; also called hNPR1 + 100 nM ANP
T2 sequence: T1 sequence
T2 sequence (peptide): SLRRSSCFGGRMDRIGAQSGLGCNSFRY

rat NPR1 (rNPR1) [3] = biological target: T3, rat NPR1 (rNPR1) (rat, UniProt P18910 29-469, limits assumed); experiment: SET, FabCys
T3 construct: Soluble antigen
T3 sequence: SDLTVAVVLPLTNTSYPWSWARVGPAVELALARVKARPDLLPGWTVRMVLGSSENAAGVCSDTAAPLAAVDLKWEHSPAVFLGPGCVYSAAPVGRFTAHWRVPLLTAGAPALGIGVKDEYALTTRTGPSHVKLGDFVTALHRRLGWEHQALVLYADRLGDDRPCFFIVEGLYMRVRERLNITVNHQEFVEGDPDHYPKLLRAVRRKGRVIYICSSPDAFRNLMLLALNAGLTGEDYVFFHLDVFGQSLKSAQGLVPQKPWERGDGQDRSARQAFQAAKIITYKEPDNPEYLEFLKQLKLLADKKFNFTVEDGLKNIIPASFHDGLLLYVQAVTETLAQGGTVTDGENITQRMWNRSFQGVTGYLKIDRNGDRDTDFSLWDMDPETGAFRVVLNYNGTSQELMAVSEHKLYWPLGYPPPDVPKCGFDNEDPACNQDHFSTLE

rNPR1-ANP complex [4] = biological target: T4, rNPR1-ANP complex (rat, UniProt P01160 124-151 (human entry), limits assumed); experiment: SET, FabCys
T4 construct: rNPR1 antigen in the presence of ANP; also called rNPR1 + 100 nM ANP
T4 sequence: T3 sequence
T4 sequence (peptide): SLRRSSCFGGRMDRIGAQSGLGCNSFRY

hNPR1-ANP complex [5] = biological target: T2, hNPR1-ANP complex; experiment: Octet, FabCys
rat NPR1 (rNPR1) [6] = biological target: T3, rat NPR1 (rNPR1); experiment: Octet, FabCys
rNPR1-ANP complex [7] = biological target: T4, rNPR1-ANP complex; experiment: Octet, FabCys
[8] = biological target: T5, human NPR1 on CHO-K1 cells (human, UniProt P16066 33-1061); experiment: cell-based or functional assay
T5 sequence: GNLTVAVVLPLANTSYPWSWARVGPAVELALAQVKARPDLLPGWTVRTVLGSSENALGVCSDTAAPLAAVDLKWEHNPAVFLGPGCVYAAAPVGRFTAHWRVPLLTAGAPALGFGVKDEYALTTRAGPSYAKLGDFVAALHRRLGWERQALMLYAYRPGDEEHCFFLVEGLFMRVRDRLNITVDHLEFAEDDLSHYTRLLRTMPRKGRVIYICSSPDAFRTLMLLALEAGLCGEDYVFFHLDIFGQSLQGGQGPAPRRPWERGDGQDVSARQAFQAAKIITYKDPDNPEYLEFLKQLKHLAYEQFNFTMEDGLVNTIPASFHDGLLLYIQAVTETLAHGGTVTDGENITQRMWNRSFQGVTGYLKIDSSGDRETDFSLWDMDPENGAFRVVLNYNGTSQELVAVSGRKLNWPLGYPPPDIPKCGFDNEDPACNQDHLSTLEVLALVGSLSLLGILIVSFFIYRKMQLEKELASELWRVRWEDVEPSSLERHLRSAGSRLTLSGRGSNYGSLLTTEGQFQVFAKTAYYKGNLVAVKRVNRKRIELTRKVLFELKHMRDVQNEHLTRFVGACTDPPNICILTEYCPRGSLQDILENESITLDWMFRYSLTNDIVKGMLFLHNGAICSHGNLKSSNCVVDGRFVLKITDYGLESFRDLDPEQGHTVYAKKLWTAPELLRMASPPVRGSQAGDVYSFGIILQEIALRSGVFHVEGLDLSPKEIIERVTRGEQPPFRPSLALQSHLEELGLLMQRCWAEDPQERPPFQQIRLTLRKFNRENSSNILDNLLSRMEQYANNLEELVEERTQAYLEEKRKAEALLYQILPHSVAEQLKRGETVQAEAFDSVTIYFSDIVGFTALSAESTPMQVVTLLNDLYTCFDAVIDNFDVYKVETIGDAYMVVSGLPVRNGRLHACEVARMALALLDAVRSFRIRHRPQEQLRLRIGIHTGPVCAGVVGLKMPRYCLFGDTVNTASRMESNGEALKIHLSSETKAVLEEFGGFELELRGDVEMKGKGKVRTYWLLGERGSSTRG

[9] = biological target: T1, human Natriuretic Peptide Receptor 1 …; experiment: FabCys affinity (Octet per Table 18 comment)
hNPR1-ANP complex [10] = biological target: T2, hNPR1-ANP complex; experiment: FabCys affinity (Octet per Table 18 comment)
rNPR1-ANP complex [11] = biological target: T4, rNPR1-ANP complex; experiment: FabCys affinity (Octet per Table 18 comment)
[12] = biological target: T1, human Natriuretic Peptide Receptor 1 …; experiment: FabCys, parental value by Octet (table comment), as in Table 14
hNPR1-ANP complex [13] = biological target: T2, hNPR1-ANP complex; experiment: as above
rNPR1-ANP complex [14] = biological target: T4, rNPR1-ANP complex; experiment: as above
[15] = biological target: T1, human Natriuretic Peptide Receptor 1 …; experiment: FabCys affinity determination
hNPR1-ANP complex [16] = biological target: T2, hNPR1-ANP complex; experiment: FabCys affinity determination
rat NPR1 (rNPR1) [17] = biological target: T3, rat NPR1 (rNPR1); experiment: FabCys affinity determination
rNPR1-ANP complex [18] = biological target: T4, rNPR1-ANP complex; experiment: FabCys affinity determination
[19] = biological target: T5, human NPR1 on CHO-K1 cells; experiment: cell-based or functional assay; remark: listed apart in the source
hNPR1-ANP complex [20] = biological target: T2, hNPR1-ANP complex; experiment: FabCys affinity (Biacore per paragraph 323)
rNPR1-ANP complex [21] = biological target: T4, rNPR1-ANP complex; experiment: FabCys affinity (Biacore per paragraph 323)
hNPR1-ANP complex [22] = biological target: T2, hNPR1-ANP complex; experiment: FabCys, parental value by Biacore, as in Table 5
rNPR1-ANP complex [23] = biological target: T4, rNPR1-ANP complex; experiment: FabCys, parental value by Biacore, as in Table 5
[24] = biological target: T1, human Natriuretic Peptide Receptor 1 …; experiment: Octet, FabCys

- Kd [1]: 9.9 nM
- Kd (hNPR1-ANP complex [2]): 1.3 nM
- Kd (rat NPR1 (rNPR1) [3]): 2.3 nM
- Kd (rNPR1-ANP complex [4]): 1.4 nM
- Kd (hNPR1-ANP complex [5]): 0.14 nM
- Kd (rat NPR1 (rNPR1) [6]): 66 nM
- Kd (rNPR1-ANP complex [7]): 0.1 nM
B1: ZZ13 (FabCys format) (Fab, V domains shown)
VH: EVQLVESGGGLVQPGGSLRLSCAASGFTFSRYYINWVRQAPGKGLEWVASIHQHGLETRYVESVKGRFTISRDNAKNSLYLQMNSLRAEDTAVYYCARSLRRRSTEHAGFDVWGQGTLVTVSS
VL: DIQMTQSPSSLSASVGDRVTITCRASQGISNYLAWYQQKPGKVPKLLIYAASTLQSGVPSRFSGSGSGTDFTLTISSLQPEDVATYYCQQADKFPYTFGQGTKVEIK
notes: Monovalent FabCys

- cGMP conc [nM] at 1 µM FabCys, +0.075 nM ANP [8]: 67 nM
- cGMP conc [nM] at 1 µM FabCys, without ANP [8]: 18 nM
- Kd [9]: 4.9 nM
- Kd (hNPR1-ANP complex [10]): 1.1 nM
- Kd (rNPR1-ANP complex [11]): 1 nM
- Kd [12]: 4.9 nM
- Kd (hNPR1-ANP complex [13]): 1.1 nM
- Kd (rNPR1-ANP complex [14]): 1 nM
B2: YY04 (FabCys format) (Fab, V domains shown)
VH: EVQLVESGGGLVKPGGSLRLSCAASGFTFSNYWISWVRQAPGKGLEWVGRIKSKTYGGTTDYAEPVKGRFTISRDDSKNTLYLQMNSLKTEDTAVYYCAREKYSIRARGHGDYGFDVWGQGTLVTVSS
VL: B1 VL with A91G, D92Y, K93H, F94A, Y96F
notes: Monovalent FabCys

- Kd [1]: 6.7 nM
- Kd (hNPR1-ANP complex [2]): 0.32 nM
- Kd (rat NPR1 (rNPR1) [3]): 2.1 nM
- Kd (rNPR1-ANP complex [4]): 1.4 nM
- Kd (hNPR1-ANP complex [5]): 0.04 nM
- Kd (rNPR1-ANP complex [7]): 0.1 nM
B3: ZZ12 (FabCys format) (Fab, V domains shown)
VH: B1 VH with T28S, R31K, I34L, H54Q, G55A, L56H, T58K, R59K
VL: B1 VL
notes: Monovalent FabCys

- Kd [15]: 45 nM
- Kd (hNPR1-ANP complex [16]): 1.1 nM
- Kd (rat NPR1 (rNPR1) [17]): 280 nM
- Kd (rNPR1-ANP complex [18]): 4.4 nM
B4: YY02 (FabCys format) (Fab, V domains shown)
VH: EVQLVESGGGLVKPGGSLRLSCAASGFTFSSYSMNWVRQAPGKGLEWVSSISSSSSYIYYADSVKGRFTISRDNAKNSLYLQMNSLRAEDTAVYYCARSGYRGVYGFDYWGQGTLVTVSS
VL: DIQMTQSPSSVSASVGDRVTITCRASQGISSWLAWYQQKPGKAPKLLIYAASSLQSGVPSRFSGSGSGTDFTLTISSLQPEDFATYYCQQYYHSPLTFGQGTKVEIK
notes: Monovalent FabCys

- Kd (hNPR1-ANP complex [16]): 0.1 nM
- Kd (rat NPR1 (rNPR1) [17]): 0.1 nM
- Kd (rNPR1-ANP complex [18]): 0.1 nM
B5: YY03 (FabCys format) (Fab, V domains shown)
VH: EVQLLESGGGLVQPGGSLRLSCAASGFTFSSYAISWVRQAPGKGLEWVSAISGSGGSTYYAESVKGRFTISRDNSKNTLYLQMNSLRAEDTAVYYCARESGYVYYLKFDYWGQGTLVTVSS
VL: B4 VL with V11L, G28S, W32Y, A34N, Y91H, Y92V, H93R, S94V, L96I
notes: Monovalent FabCys

- cGMP conc [nM] at 2 µM FabCys, +0.075 nM ANP [19]: 121 nM
- cGMP conc [nM] at 2 µM FabCys, without ANP [19]: 30 nM
- Kd (hNPR1-ANP complex [20]): 1.5 nM
- Kd (rNPR1-ANP complex [21]): 2 nM
- Kd (hNPR1-ANP complex [22]): 1.5 nM
- Kd (rNPR1-ANP complex [23]): 2 nM
B6: WW01 (FabCys format) (Fab, V domains shown)
VH: QVQLLESGGGLVQPGGSLRLSCAASGFTFNTHYIHWVRQAPGKGLEWVSSISGSGSNTYYADSVKGRFTISRDNSKNTLYLQMNSLRAEDTAVYYCARERGYVYYHMFDPWGQGTLVTVSS
VL: DIVLTQSPATLSLSPGERATLSCRASQSITRNYLAWYQQKPGQAPRLLIYGASSRATGIPARFSGSGSGTDFTLTISSLEPEDFAVYYCQQHSMYPRTFGQGTKVEIK
notes: Monovalent disulfide-bridged FabCys

- Kd [1]: 0.053 nM
- Kd (hNPR1-ANP complex [2]): 0.074 nM
- Kd [24]: 0.26 nM
- Kd (hNPR1-ANP complex [5]): 0.19 nM
B7: ZZ15 (FabCys format) (Fab, V domains shown)
VH: EVQLLESGGGLVQPGGSLRLSCAASGFTFASYAITWVRQAPGKGLEWVSTISGSGVYTYYAESVKGRFTISRDNSKNTLYLQMNSLRAEDTAVYYCARPYLGDRRSYGFDHWGQGTLVTVSS
VL: QSALTQPASVSGSPGQSITISCTGTSSDVGSYNLVSWYQQHPGKAPKLMIYEGSKRPSGVSNRFSGSKSGNTASLTISGLQAEDEADYYCSSYGFHIVVVVFGGGTKLTVL
notes: Monovalent FabCys

- Kd [1]: 0.04 nM
- Kd (hNPR1-ANP complex [2]): 0.034 nM
- Kd (rat NPR1 (rNPR1) [3]): 62 nM
- Kd (rNPR1-ANP complex [4]): 51 nM
- Kd [24]: 0.14 nM
- Kd (hNPR1-ANP complex [5]): 0.11 nM
B8: ZZ16 (FabCys format) (Fab, V domains shown)
VH: B7 VH with A30G, S31T, I34M, T50S, G53A, V56Y, T58A, Y59N, E62G
VL: B7 VL
notes: Monovalent FabCys
